Reference: article PMC2908078, “The YEATS family member GAS41 interacts with the general transcription factor TFIIF” (BMC Molecular Biology, 2010)

Target: T1, His-GAS41 (human, UniProt O95619 1-227)
T1 construct: source: E. coli M15 [pRep4], pQE30, purified (Ni-NTA)
Test: pull-down; GST-RAP30 full length or fragments d1-d3 on glutathione-sepharose 4B as bait, purified His-GAS41 (10-20 ug) as prey, over night at 4°C; immunoblot
Conditions: both partners purified

T1 sequence (O95619 whole entry): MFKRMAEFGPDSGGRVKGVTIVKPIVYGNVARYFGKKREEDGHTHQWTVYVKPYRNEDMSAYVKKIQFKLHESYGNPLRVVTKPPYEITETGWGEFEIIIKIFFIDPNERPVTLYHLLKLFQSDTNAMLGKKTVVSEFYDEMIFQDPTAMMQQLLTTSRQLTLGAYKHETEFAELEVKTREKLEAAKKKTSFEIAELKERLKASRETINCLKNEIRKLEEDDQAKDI

B1: GST-RAP30 d2 (RAP74 binding domain and polymerase binding domain, aa1-169) (domain or fragment, human, UniProt P13984 1-169, looked up)
chain: MAERGELDLTGAKQNTGVWLVKVPKYLSQQWAKASGRGEVGKLRIAKTQGRTEVSFTLNEDLANIHDIGGKPASVSAPREHPFVLQSVGGQTLTVFTESSSDKLSLEGIVVQRAECRPAASENYMRLKRLQIEESSKPVRLSQQLDKVVTTNYKPVANHQYNIEYERKK
notes: source: E. coli BL21 (DE3), pGEX-4T1
B1: binds.

B2: GST-RAP30 d3 (DNA binding site, aa169-249) (domain or fragment, human, UniProt P13984 169-249, looked up)
chain: KKEDGKRARADKQHVLDMLFSAFEKHQYYNLKDLVDITKQPVVYLKEILKEIGVQNVKGIHKNTWELKPEYRHYQGEEKSD
notes: as for B1
B2: binds.
